Measured values: US20050100965A1 (published 2005)
Numbering of substitutions follows the chain as printed. Several values for one entry are separate records, joined by “and”; a condition that tells them apart may be missing. Identical values can stand only once.

B1: HuMAb 2.5.1 (antibody, V domains shown)
VH: ZVQLVQSGTEVKKPGESLKISCKGSGYTVTSYWIGWVRQMPGKGLEWMGFIYPGDSETRYSPTFQGQVTISADKSFNTAFLQWSSLKASDTAMYYCARVGSGWYPYTFDIWGQGTMVTVSS
VL: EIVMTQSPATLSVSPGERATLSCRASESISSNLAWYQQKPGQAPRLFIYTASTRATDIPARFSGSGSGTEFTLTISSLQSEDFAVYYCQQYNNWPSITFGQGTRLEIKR
B2: HuMAb 2.13.1 (antibody, V domains shown)
VH: ZVQLQESGPGLVTPSQTLSLTCTVSGGSISSGGHYWTWIRQHPGKGLEWIGYIYYSGSTYYNPSLKSRLTISVDTSKNQFSLKLSSVAAADTAVYYCARDRGGSGSYWDYWGQGTLVTVSS
VL: EIVLTQSPGTLSLSPGERATLSCRGSRSVSSGYLAWYQQKPGQAPRLLIYGVSIRATGIPDRFSGSGSGTDFTLTISRLEPEDFAVYYCQQYHGSPLTFGGGTKVEIKR
B3: HuMAb 550 (antibody, V domains shown)
VH: ZVQLQESGPGLVKPSQTLSLTCTVSGGSINSGGYYWSWIRQHPGKGLEWIGHISYRGTTYSNPSLKSRVTISVDTSKNQFSLKLSSVTAADTAVYYCARDRGGGFFDLWGRGTLVTVSS
VL: B2 VL with G25A, R27Q, S30N, G58D, G69A, H93G, G94F, K104R, K108N
notes: KG-1 IC50 printed as TBD
B4: HuMAb 215 (antibody, V domains shown)
VH: B3 VH with G33D, S61Y, Y96C
VL: B2 VL with G25A, V29L, V52A, G69A, H93N, G94Y, K104R, K108N
B5: HuMAb 351 (antibody, V domains shown)
VH: ZVQLVESGGGVVQPGRSLRLSCAASGFTFSHYGMHWVRQAPGKGLEWVAVISYDGRNKYYVDSVKGRFTISRDNSKNTLYLQMNSLRAEDTAVFYCAREKGGSGWPPFYYYYGMDVWGQGTTVTVSS
VL: DIVMTQTPLSLSVTPGQPASISCKSSQNLLYSDGETYLCWYLQKPGQPPQLLIYEVSNRFSGVPERFSGSGSGTDFTLKISRVEAEDVGIYYCMQNVQLPLTFGGGTRVEIKR
B6: HuMAb 413 (antibody, V domains shown)
VH: ZTQLQESGPGLVKPSETLSLTCTVSGGSISSRVYYWGWIRQPPGKGLEWIGSIYYSGSTYYSPSLKSRVTISVDTSKNQFSLKLSSVTAADTAIYYCAREDSSAWVFEHWGQGTLVTVSS
VL: EIVLTQSPDTLSLSPGERATLSCRASQILSRNYLAWYQQKPGQAPRLLIYGISIRATGIPDRFSGSGSGADFTLTINRLEPEDFAVYYCQHYDNSLCSFGQGTKLEVKR
B7: HuMAb 268 (antibody, V domains shown)
VH: ZVQLVESGGGVVQPGRSLRLSCAASGFTFRNYGLHWVRQAPGKGLEWVAVIWYDGSNKYYADSVKGRFTISRDNSKNTLYLQMNSLRAEDTAVYYCARESYYYYGMDVWGQGTTVTVSS
VL: EIVMTQSPATLSVSPGERATLSCRASQSFNSNLVWYQQKPGQAPRLLIYGASTRATGIPARFSGSGSGTEFTLTISSLQSEDFAVYYCQQYNNWTWTFGQGTKVEIKR
B8: HuMAb 435 (antibody, V domains shown)
VH: ZLQLQESGPGLVKPSETLSLTCTVSGGSIDSRIYYWGWIRQPPGKGLEWIGSIYYRGSTYYNPSLKSRVTISVDTPKNQFSLKLNSVTAADTAVYYCAREDSSAWVFDYWGQGTLATVSS
VL: EIVLTQSPGTLSLSPGERATLSCRASQSVRNNYLNWYQQKPGQAPRLLIYGAFSRATGIPDRFSGSGSGTDFTLTISSLEPEDFVVYYCQQYGNSIDSFGQGTKLEINR

How the values were obtained:
NEM-huIL-18 = NEM-huIL-18 (human, UniProt Q14116 37-193, cysteines treated with N-ethyl maleiamide (NEM)); assay: cell-based or functional assay
[1] = target: T1, Biotinylated rhuIL-18 (biot-IL-18) (human, UniProt Q14116 37-193, NEM-treated cysteines; biotin on lysine residues (mixture with 1, 2, 3 or 4 biotins per huIL-18)); assay: biotinylated IL-18 ELISA, hybridoma or B cell supernatant
T1 construct: also called biotinylated NEM-huIL-18; biotinylated IL-18
Source text: An ELISA was developed to screen for antibodies that bind human IL-18. […] Hybridoma or B cell supernatants were applied and IL-18-bound antibodies were detected using HRP-conjugated anti-human IgGs, following standard ELISA protocols well known in the art.

Row | Binder | KG-1 Assays (IC50, M) (NEM-huIL-18) | binding result [1]
1 | B1 | 3e-10 M and 4e-10 M | –
2 | B2 | 2e-10 M and 1e-10 M and 7e-11 M | –
3 | B3 | – | binds
4 | B4 | 1e-10 M and 3e-10 M | –
5 | B5 | 2e-10 M | –
6 | B6 | 1e-09 M and 7e-10 M | –
7 | B7 | 7e-09 M | –
8 | B8 | 8e-10 M and 7e-10 M and 4e-10 M | –
